Reference: patent publication US20250161472A1 (BIOATLA, published 2025)
Substitutions are numbered along the chain they refer to. Read-outs that look alike come from different tables or passages of the source. One block for each binder: values may come before it.

Legend:
Parameters in all cases: unit not given here
[1] = molecular target: T1, human ROR2 (receptor tyrosine kinase-like orphan receptor 2) (human, UniProt Q01974 34-403, limits assumed); assay: affinity ELISA on human ROR2, pH 7.4
T1 construct: Antigen of the ELISA, SPR and pH titration assays; also called hROR2
T1 sequence (Q01974 34-403 limits assumed): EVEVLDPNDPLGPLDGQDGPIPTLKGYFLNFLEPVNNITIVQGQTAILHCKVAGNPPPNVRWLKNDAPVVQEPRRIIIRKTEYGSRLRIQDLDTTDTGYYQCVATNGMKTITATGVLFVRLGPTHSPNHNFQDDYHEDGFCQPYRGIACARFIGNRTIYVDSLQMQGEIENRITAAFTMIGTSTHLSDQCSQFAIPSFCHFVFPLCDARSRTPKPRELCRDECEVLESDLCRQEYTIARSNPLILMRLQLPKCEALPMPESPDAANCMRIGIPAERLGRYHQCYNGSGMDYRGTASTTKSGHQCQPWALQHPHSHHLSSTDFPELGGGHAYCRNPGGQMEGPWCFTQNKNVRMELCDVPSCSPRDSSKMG

[2] = molecular target: T1, human ROR2 (receptor tyrosine …); assay: affinity ELISA on human ROR2, pH 6.0
[3] = molecular target: T1, human ROR2 (receptor tyrosine …); assay: affinity ELISA on human ROR2, pH 6.0; remark: listed apart in the source
[4] = molecular target: T1, human ROR2 (receptor tyrosine …); assay: affinity ELISA on human ROR2, pH 7.4; remark: listed apart in the source

B1: LC-G049C (antibody, V domains shown)
VH: EVQLQQSGPELVKPGASVKISCKTSGYTFTEYTMHWMKQSHRKSLEWIGGINTNNGGTGYNQKFKGKATLTVDKSSSTAYMELRSLTSEDSAVYFCARGSLYSYGNSYFDYWGQGTLVTVSS
VL: QIVLTQSPAIMSASPGEKVTITCSATSSVSYMHWFQQKPGTSPKLWIYCTSNLASGVPARFSGSGSGTSYSLTISRMEAEDAATYYCQQRSSYPFTFGQGTKVEIK
notes: CPE single point mutant of parent VL 48.6-LC-WT
Affinity ELISA, pH 7.4 [1]: 0.133
Affinity ELISA, pH 6.0 [2]: 0.468

B2: HC-A097I (antibody, V domains shown)
VH: B1 VH with A97I
VL: B1 VL with C49G
notes: CPE single point mutant of parent VH 48.6-HC-WT
Affinity ELISA, pH 6.0 [3]: 1.89
Affinity ELISA, pH 7.4 [4]: 1.73

B5: HC-M034D (antibody, V domains shown)
VH: B1 VH with M34D
VL: B1 VL with C49G
notes: as for B2
Affinity ELISA, pH 6.0 [3]: 1.24
Affinity ELISA, pH 7.4 [4]: 0.211

B6: HC-M034Y (antibody, V domains shown)
VH: B1 VH with M34Y
VL: B1 VL with C49G
notes: as for B2
Affinity ELISA, pH 6.0 [3]: 0.903
Affinity ELISA, pH 7.4 [4]: 0.391

B7: HC-N052C (antibody, V domains shown)
VH: B1 VH with N52C
VL: B1 VL with C49G
notes: as for B2
Affinity ELISA, pH 6.0 [3]: 0.995
Affinity ELISA, pH 7.4 [4]: 0.431

B8: HC-I051E (antibody, V domains shown)
VH: B1 VH with I51E
VL: B1 VL with C49G
notes: as for B2
Affinity ELISA, pH 6.0 [3]: 1.04
Affinity ELISA, pH 7.4 [4]: 0.1

B15: HC-G050S (antibody, V domains shown)
VH: B1 VH with G50S
VL: B1 VL with C49G
notes: as for B2
Affinity ELISA, pH 6.0 [3]: 0.828
Affinity ELISA, pH 7.4 [4]: 0.318

B18: HC-G105D (antibody, V domains shown)
VH: B1 VH with G105D
VL: B1 VL with C49G
notes: as for B2
Affinity ELISA, pH 6.0 [3]: 0.509
Affinity ELISA, pH 7.4 [4]: 0.379

B20: HC-A097T (antibody, V domains shown)
VH: B1 VH with A97T
VL: B1 VL with C49G
notes: as for B2
Affinity ELISA, pH 6.0 [3]: 1.83
Affinity ELISA, pH 7.4 [4]: 1.69

B23: HC-F029E (antibody, V domains shown)
VH: B1 VH with F29E
VL: B1 VL with C49G
notes: as for B2
Affinity ELISA, pH 6.0 [3]: 1.34
Affinity ELISA, pH 7.4 [4]: 0.742

B25: HC-L101F (antibody, V domains shown)
VH: B1 VH with L101F
VL: B1 VL with C49G
notes: as for B2
Affinity ELISA, pH 6.0 [3]: 1.46
Affinity ELISA, pH 7.4 [4]: 1.41

B28: HC-M034E (antibody, V domains shown)
VH: B1 VH with M34E
VL: B1 VL with C49G
notes: as for B2
Affinity ELISA, pH 6.0 [3]: 1.17
Affinity ELISA, pH 7.4 [4]: 0.185

B30: HC-D110L (antibody, V domains shown)
VH: B1 VH with D110L
VL: B1 VL with C49G
notes: as for B2
Affinity ELISA, pH 6.0 [3]: 1.68
Affinity ELISA, pH 7.4 [4]: 1.4

B32: HC-G099E (antibody, V domains shown)
VH: B1 VH with G99E
VL: B1 VL with C49G
notes: as for B2
Affinity ELISA, pH 6.0 [3]: 0.616
Affinity ELISA, pH 7.4 [4]: 0.421

B34: HC-A097S (antibody, V domains shown)
VH: B1 VH with A97S
VL: B1 VL with C49G
notes: as for B2
Affinity ELISA, pH 6.0 [3]: 1.67
Affinity ELISA, pH 7.4 [4]: 1.69

B37: HC-A097M (antibody, V domains shown)
VH: B1 VH with A97M
VL: B1 VL with C49G
notes: as for B2
Affinity ELISA, pH 6.0 [3]: 1.98
Affinity ELISA, pH 7.4 [4]: 1.7

The remaining lines, values ahead:

Affinity ELISA, pH 6.0 [3]: 0.911
Affinity ELISA, pH 7.4 [4]: 0.433
B3: HC-N052L (antibody, V domains shown)
VH: B1 VH with N52L
VL: B1 VL with C49G
notes: as for B2

Affinity ELISA, pH 7.4 [1]: 0.268
Affinity ELISA, pH 6.0 [2]: 0.66
B4: LC-G049P (antibody, V domains shown)
VH: B1 VH
VL: B1 VL with C49P
notes: as for B1

Affinity ELISA, pH 7.4 [1]: 0.215
Affinity ELISA, pH 6.0 [2]: 0.489
B9: LC-F097E (antibody, V domains shown)
VH: B1 VH
VL: B1 VL with C49G, F97E
notes: as for B1

Affinity ELISA, pH 6.0 [3]: 1.75
Affinity ELISA, pH 7.4 [4]: 1.7
B10: HC-W112L (antibody, V domains shown)
VH: B1 VH with W112L
VL: B1 VL with C49G
notes: as for B2

Affinity ELISA, pH 6.0 [3]: 1.08
Affinity ELISA, pH 7.4 [4]: 0.793
B11: HC-Y111C (antibody, V domains shown)
VH: B1 VH with Y111C
VL: B1 VL with C49G
notes: as for B2

Affinity ELISA, pH 6.0 [3]: 1.11
Affinity ELISA, pH 7.4 [4]: 0.222
B12: HC-T053D (antibody, V domains shown)
VH: B1 VH with T53D
VL: B1 VL with C49G
notes: as for B2

Affinity ELISA, pH 6.0 [3]: 0.626
Affinity ELISA, pH 7.4 [4]: 0.232
B13: HC-T033C (antibody, V domains shown)
VH: B1 VH with T33C
VL: B1 VL with C49G
notes: as for B2

Affinity ELISA, pH 7.4 [1]: 0.252
Affinity ELISA, pH 6.0 [2]: 0.733
B14: LC-S030D (antibody, V domains shown)
VH: B1 VH
VL: B1 VL with S30D, C49G
notes: as for B1

Affinity ELISA, pH 7.4 [1]: 1.12
Affinity ELISA, pH 6.0 [2]: 1.13
B16: LC-S092D (antibody, V domains shown)
VH: B1 VH
VL: B1 VL with C49G, S92D
notes: as for B1

Affinity ELISA, pH 7.4 [1]: 1.18
Affinity ELISA, pH 6.0 [2]: 1.23
B17: LC-S092V (antibody, V domains shown)
VH: B1 VH
VL: B1 VL with C49G, S92V
notes: as for B1

Affinity ELISA, pH 7.4 [1]: 0.118
Affinity ELISA, pH 6.0 [2]: 1.87
B19: LC-G049H (antibody, V domains shown)
VH: B1 VH
VL: B1 VL with C49H
notes: as for B1

Affinity ELISA, pH 6.0 [3]: 0.928
Affinity ELISA, pH 7.4 [4]: 0.353
B21: HC-R098H (antibody, V domains shown)
VH: B1 VH with R98H
VL: B1 VL with C49G
notes: as for B2

Affinity ELISA, pH 6.0 [3]: 1.86
Affinity ELISA, pH 7.4 [4]: 1.4
B22: HC-Y111T (antibody, V domains shown)
VH: B1 VH with Y111T
VL: B1 VL with C49G
notes: as for B2

Affinity ELISA, pH 7.4 [1]: 0.536
Affinity ELISA, pH 6.0 [2]: 1.1
B24: LC-H033G (antibody, V domains shown)
VH: B1 VH
VL: B1 VL with H33G, C49G
notes: as for B1

Affinity ELISA, pH 7.4 [1]: 0.251
Affinity ELISA, pH 6.0 [2]: 0.438
B26: LC-Q089E (antibody, V domains shown)
VH: B1 VH
VL: B1 VL with C49G, Q89E
notes: as for B1

Affinity ELISA, pH 7.4 [1]: 0.256
Affinity ELISA, pH 6.0 [2]: 0.56
B27: LC-R090H (antibody, V domains shown)
VH: B1 VH
VL: B1 VL with C49G, R90H
notes: as for B1

Affinity ELISA, pH 6.0 [3]: 0.87
Affinity ELISA, pH 7.4 [4]: 0.34
B29: HC-N052V (antibody, V domains shown)
VH: B1 VH with N52V
VL: B1 VL with C49G
notes: as for B2

Affinity ELISA, pH 6.0 [3]: 1.47
Affinity ELISA, pH 7.4 [4]: 0.51
B31: HC-Y032D (antibody, V domains shown)
VH: B1 VH with Y32D
VL: B1 VL with C49G
notes: as for B2

Affinity ELISA, pH 6.0 [3]: 0.54
Affinity ELISA, pH 7.4 [4]: 0.157
B33: HC-T053E (antibody, V domains shown)
VH: B1 VH with T53E
VL: B1 VL with C49G
notes: as for B2

Affinity ELISA, pH 6.0 [3]: 0.794
Affinity ELISA, pH 7.4 [4]: 0.655
B35: HC-S103G (antibody, V domains shown)
VH: B1 VH with S103G
VL: B1 VL with C49G
notes: as for B2

Affinity ELISA, pH 6.0 [3]: 0.799
Affinity ELISA, pH 7.4 [4]: 0.276
B36: HC-R098Q (antibody, V domains shown)
VH: B1 VH with R98Q
VL: B1 VL with C49G
notes: as for B2

Affinity ELISA, pH 7.4 [1]: 0.332
Affinity ELISA, pH 6.0 [2]: 0.69
B38: LC-H033L (antibody, V domains shown)
VH: B1 VH
VL: B1 VL with H33L, C49G
notes: as for B1
